From PMC4893494, “Identification and Characterization of Five BAHD Acyltransferases Involved in Hydroxycinnamoyl Ester Metabolism in Chicory” (Frontiers in Plant Science, 2016)

Test system: O=C(O)C1=C[C@@H](O)[C@@H](O)[C@H](O)C1
Experiment: HPLC-UV of product, Michaelis-Menten
Format: biochemical, Cichorium intybus
Settings: acyl acceptor varied, saturating p-coumaroyl-CoA (800 μM), 50 mM phosphate pH 7.1, room temperature
From the text: HPLC-UV of product, Michaelis-Menten on HCT2 (CiHCT2)

Substance: HCT2 (CiHCT2) (Cichorium intybus)
- Km: 802 ± 63 µM
- Vmax: 18.2 µmol/min/mg
- Vmax/Km: 22800 µL/min/mg
